The supplement of paper PMC9112550, “Optimization of the antimicrobial peptide Bac7 by deep mutational scanning” (BMC Biology, 2022)

System: Escherichia coli TOP10
Test: shrunken log2 fold change of peptide-encoding DNA abundance (4.5 h post-induction vs induction); higher = less antimicrobial activity (less host growth inhibition)
Conditions: time post-induction: 4.5 h; library: site-saturation at positions 5, 18, 19, 20
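Further: peptides expressed intracellularly from a pBAD plasmid library in pooled LB shake-flask culture, induced with 0.3% L-arabinose, DNA abundance read by NGS, three biological replicates, DESeq2 with apeglm shrinkage.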

| Sequence | shrunken log2 fold change |
| --- | --- |
| RRIRQRPPRLPRPRPRPMNFPRP | -0.01 |
| RRIRERPPRLPRPRPRPTHRPRP | 0.243 |
| RRIRHRPPRLPRPRPRPSQYPRP | -0.372 |
| RRIRDRPPRLPRPRPRPNKRPRP | -0.14 |
| RRIRCRPPRLPRPRPRPRHDPRP | -0.234 |
| RRIRTRPPRLPRPRPRPENAPRP | -0.49 |
| RRIRERPPRLPRPRPRPLRGPRP | 0.529 |
| RRIRIRPPRLPRPRPRPYTFPRP | -2.16 |
| RRIRQRPPRLPRPRPRPDGFPRP | -0.0107 |
| RRIRDRPPRLPRPRPRPQGWPRP | 0.693 |
| RRIRRRPPRLPRPRPRPSCAPRP | 0.452 |
| RRIRHRPPRLPRPRPRPTNQPRP | -0.425 |
| RRIRVRPPRLPRPRPRPNVHPRP | -0.546 |
| RRIRCRPPRLPRPRPRPWMWPRP | -0.00829 |
| RRIRTRPPRLPRPRPRPLVSPRP | -0.0657 |
| RRIRCRPPRLPRPRPRPILDPRP | -0.122 |
| RRIRNRPPRLPRPRPRPWIQPRP | -0.209 |
| RRIRMRPPRLPRPRPRPKCQPRP | 1.33 |
| RRIRPRPPRLPRPRPRPQIVPRP | -0.594 |
| RRIRNRPPRLPRPRPRPKWHPRP | 0.129 |
| RRIRIRPPRLPRPRPRPWCPPRP | 0.0944 |
| RRIRPRPPRLPRPRPRPNPCPRP | -0.165 |
| RRIRTRPPRLPRPRPRPNRAPRP | -0.244 |
| RRIRTRPPRLPRPRPRPHWIPRP | -0.569 |
| RRIRRRPPRLPRPRPRPSYCPRP | -0.0727 |

| Sequence | shrunken log2 fold change |
| --- | --- |
| RRIRERPPRLPRPRPRPDVTPRP | 0.00636 |
| RRIRFRPPRLPRPRPRPHHWPRP | -0.499 |
| RRIRHRPPRLPRPRPRPGGIPRP | -0.092 |
| RRIRHRPPRLPRPRPRPTITPRP | -0.384 |
| RRIRIRPPRLPRPRPRPRFPPRP | 0.0241 |
| RRIRARPPRLPRPRPRPKLVPRP | 0.106 |
| RRIRVRPPRLPRPRPRPWGCPRP | 0.076 |
| RRIRDRPPRLPRPRPRPYTGPRP | -1.03 |
| RRIRRRPPRLPRPRPRPISDPRP | 0.136 |
| RRIRERPPRLPRPRPRPCEMPRP | 0.118 |
| RRIRSRPPRLPRPRPRPQTFPRP | -0.136 |
| RRIRERPPRLPRPRPRPTSGPRP | 0.0416 |
| RRIRGRPPRLPRPRPRPLNAPRP | 0.908 |
| RRIRHRPPRLPRPRPRPIMFPRP | -0.439 |
| RRIRCRPPRLPRPRPRPADVPRP | -0.391 |
| RRIRRRPPRLPRPRPRPLGKPRP | -0.017 |
| RRIRSRPPRLPRPRPRPAFWPRP | 0.651 |
| RRIRARPPRLPRPRPRPVSVPRP | 0.137 |
| RRIRTRPPRLPRPRPRPTAQPRP | 0.247 |
| RRIRNRPPRLPRPRPRPEIDPRP | 0.166 |
| RRIRFRPPRLPRPRPRPVINPRP | -0.816 |
| RRIRFRPPRLPRPRPRPAGYPRP | 0.00702 |
| RRIRWRPPRLPRPRPRPLAWPRP | 0.474 |
| RRIRSRPPRLPRPRPRPTRTPRP | 0.386 |
| RRIRNRPPRLPRPRPRPMRFPRP | -0.00968 |

| Sequence | shrunken log2 fold change |
| --- | --- |
| RRIRYRPPRLPRPRPRPEWCPRP | -0.244 |
| RRIRVRPPRLPRPRPRPTYQPRP | -0.388 |
| RRIRDRPPRLPRPRPRPGVWPRP | 0.886 |
| RRIRGRPPRLPRPRPRPRQQPRP | 0.614 |
| RRIRLRPPRLPRPRPRPTEFPRP | 0.0447 |
| RRIRARPPRLPRPRPRPPMQPRP | 0.781 |
| RRIRNRPPRLPRPRPRPIPHPRP | 0.134 |
| RRIRLRPPRLPRPRPRPKDDPRP | -0.0117 |
| RRIRRRPPRLPRPRPRPIYVPRP | -0.114 |
| RRIRTRPPRLPRPRPRPPTTPRP | 0.302 |
| RRIRSRPPRLPRPRPRPDWKPRP | -0.0322 |
| RRIRERPPRLPRPRPRPWHKPRP | -0.236 |
| RRIRCRPPRLPRPRPRPMRRPRP | 0.163 |
| RRIRHRPPRLPRPRPRPTPHPRP | 0.281 |
| RRIRCRPPRLPRPRPRPHTEPRP | -0.273 |
| RRIRYRPPRLPRPRPRPSVPPRP | -0.497 |
| RRIRCRPPRLPRPRPRPFTGPRP | -0.0668 |
| RRIRARPPRLPRPRPRPGTRPRP | 0.532 |
| RRIRVRPPRLPRPRPRPGDVPRP | -0.262 |
| RRIRRRPPRLPRPRPRPGKSPRP | 0.0256 |
| RRIRFRPPRLPRPRPRPTDDPRP | -0.019 |
| RRIRDRPPRLPRPRPRPNQWPRP | 0.151 |
| RRIRMRPPRLPRPRPRPSFKPRP | -0.0765 |
| RRIRCRPPRLPRPRPRPYWCPRP | -0.201 |
| RRIRTRPPRLPRPRPRPQERPRP | 0.00298 |

| Sequence | shrunken log2 fold change |
| --- | --- |
| RRIRYRPPRLPRPRPRPDIDPRP | -0.172 |
| RRIRCRPPRLPRPRPRPGRTPRP | -0.106 |
| RRIRSRPPRLPRPRPRPYPWPRP | -0.591 |
| RRIRIRPPRLPRPRPRPAYNPRP | -0.111 |
| RRIRARPPRLPRPRPRPSVEPRP | 0.49 |
| RRIRIRPPRLPRPRPRPHRLPRP | -0.122 |
| RRIRIRPPRLPRPRPRPQAFPRP | -0.0625 |
| RRIRLRPPRLPRPRPRPRDNPRP | -0.127 |
| RRIRHRPPRLPRPRPRPPQCPRP | 0.178 |
| RRIRARPPRLPRPRPRPQMFPRP | -0.046 |
| RRIRRRPPRLPRPRPRPKVKPRP | -0.0947 |
| RRIRDRPPRLPRPRPRPSSRPRP | -0.0968 |
| RRIRSRPPRLPRPRPRPGNEPRP | -0.183 |
| RRIRPRPPRLPRPRPRPAVKPRP | 0.171 |
| RRIRVRPPRLPRPRPRPADPPRP | 0.0239 |
| RRIRNRPPRLPRPRPRPKKYPRP | -0.69 |
| RRIRPRPPRLPRPRPRPEWIPRP | -0.0215 |
| RRIRERPPRLPRPRPRPTRMPRP | 0.084 |
| RRIRHRPPRLPRPRPRPEWLPRP | 0.274 |
| RRIRNRPPRLPRPRPRPCNKPRP | -0.334 |
| RRIRERPPRLPRPRPRPTKYPRP | -0.568 |
| RRIRRRPPRLPRPRPRPQEAPRP | 0.0364 |
| RRIRNRPPRLPRPRPRPPQCPRP | -0.000221 |
| RRIRYRPPRLPRPRPRPAVSPRP | 0.0627 |
| RRIRNRPPRLPRPRPRPGNNPRP | -0.492 |

| Sequence | shrunken log2 fold change |
| --- | --- |
| RRIRIRPPRLPRPRPRPFDAPRP | -0.0176 |
| RRIRNRPPRLPRPRPRPCTQPRP | -0.147 |
| RRIRFRPPRLPRPRPRPVCMPRP | -0.498 |
| RRIRKRPPRLPRPRPRPSKHPRP | 0.0908 |
| RRIRMRPPRLPRPRPRPCKIPRP | -0.0518 |
| RRIRERPPRLPRPRPRPGTEPRP | -0.049 |
| RRIRIRPPRLPRPRPRPSRGPRP | 0.242 |
| RRIRARPPRLPRPRPRPQKRPRP | 0.172 |
| RRIRKRPPRLPRPRPRPPWVPRP | 0.221 |
| RRIRRRPPRLPRPRPRPFFLPRP | 0.0467 |
| RRIRQRPPRLPRPRPRPDRCPRP | 0.298 |
| RRIRPRPPRLPRPRPRPFFEPRP | 0.229 |
| RRIRNRPPRLPRPRPRPSWFPRP | -0.398 |
| RRIRSRPPRLPRPRPRPNVEPRP | 0.814 |
| RRIRIRPPRLPRPRPRPCGSPRP | -0.0454 |
| RRIRVRPPRLPRPRPRPLMPPRP | 0.0146 |
| RRIRGRPPRLPRPRPRPYFSPRP | -0.00993 |
| RRIRTRPPRLPRPRPRPDKTPRP | -0.108 |
| RRIRFRPPRLPRPRPRPGHCPRP | 0.0688 |
| RRIRMRPPRLPRPRPRPSHQPRP | -0.0291 |
| RRIRGRPPRLPRPRPRPMKEPRP | 0.31 |
| RRIRERPPRLPRPRPRPPNHPRP | -0.288 |
| RRIRARPPRLPRPRPRPSIEPRP | 0.0128 |
| RRIRERPPRLPRPRPRPVVPPRP | -0.158 |
| RRIRQRPPRLPRPRPRPIVWPRP | -0.287 |

| Sequence | shrunken log2 fold change |
| --- | --- |
| RRIRMRPPRLPRPRPRPPEQPRP | 0.956 |
| RRIRPRPPRLPRPRPRPNAFPRP | -0.0225 |
| RRIRRRPPRLPRPRPRPRSDPRP | 0.323 |
| RRIRFRPPRLPRPRPRPGMNPRP | -0.147 |
| RRIRPRPPRLPRPRPRPDKRPRP | 0.00792 |
| RRIRKRPPRLPRPRPRPYDLPRP | 0.115 |
| RRIRTRPPRLPRPRPRPVFWPRP | 0.386 |
| RRIRARPPRLPRPRPRPQCDPRP | 0.0205 |
| RRIRTRPPRLPRPRPRPEAQPRP | 0.00719 |
| RRIRPRPPRLPRPRPRPECNPRP | -0.0298 |
| RRIRIRPPRLPRPRPRPLVPPRP | -0.33 |
| RRIRIRPPRLPRPRPRPYVVPRP | -1.54 |
| RRIRVRPPRLPRPRPRPRKLPRP | -0.0444 |
| RRIRQRPPRLPRPRPRPPNGPRP | -0.00787 |
| RRIRMRPPRLPRPRPRPDEFPRP | 1.49 |
| RRIRPRPPRLPRPRPRPFFMPRP | -0.196 |
| RRIRYRPPRLPRPRPRPCEYPRP | -0.138 |
| RRIRQRPPRLPRPRPRPSTEPRP | -0.0926 |
| RRIRPRPPRLPRPRPRPYEVPRP | -0.125 |
| RRIRGRPPRLPRPRPRPRWLPRP | 0.527 |
| RRIRERPPRLPRPRPRPDPMPRP | -0.0562 |
| RRIRTRPPRLPRPRPRPTRSPRP | -0.111 |
| RRIRERPPRLPRPRPRPDMEPRP | -0.201 |
| RRIRKRPPRLPRPRPRPWFCPRP | -0.0352 |
| RRIRCRPPRLPRPRPRPHYCPRP | -0.342 |
